# Experiment: soluble on expression in E. coli; label from the status in PepcDB or PDB records
row,Sequence,soluble on expression in E. coli
1,MTKEEMRNAILDIFQSNPQSVMNYKQVSHLMGVEAAPQKLMVNSLMEDMAVDDILHEIERGRYRYNALGLIVIGTFERRFNGRNSFIPEGGGTPIFIAERNSAHAMDGDKVKVQLFAKRRGRAPEAAVIEIIEQKQATFVGKIQINRDFAFLVTEDRTLANDIFIPKDNLGNAKNGDKVIVRILEWPEQSKNPIGEVQAVLGPAGDNDAEMNAILAEFGLPYVYPQEVEEAADRLDGKITEEELARREDFRSILTFTIDPKDAKDFDDAISFRPLEDDCYEVGVHIADVSHYVTEGGIIDQEAYNRATSIYLVDRTIPMLPERLCNDLCSLRPDEEKYAYSCIFRMNDEAKVLDYRICHSVIKSDRRFAYEEAQAVIETGEGDCKEAILKLNELAQRLRKERFQNGAIAFERKEVRFEIDEKGRPLGVIVKESKEANKLIEEFMLLANRTVARHIGEETQGKRAKTFVYRIHDLPDPDKLETLSDFIRRFGYKLRTTGSNVEVSKSINSLLDNIQNKPEENLISTVAIRSMAKAIYSTDNIGHYGLAFDFYTHFTSPIRRYPDLMVHRLLTKYLSGGSSVDKNDYEEKCKHSSAMEQLAASAERASIKYKQVEFMSEHLGKVFDGVISGVTEWGLYVELKENMCEGLIPIRCLDDDYYEYDDKNFCLIGRRYRHRYSLGDAITVRVAQANLDRKQLDFEPVS,not soluble
2,MGSDKIHHHHHHMSCSTAVKENTTQPDIMETNKKNLGNLLALYPKPMTVVGAEVEGKVNWLVVGHTGVIGHDRILVSMSKSHYTNQGIKKSKRLSVNLVSREMLPKADYVGSVSGATVDKSEVFAYHIGENDTPVIDASPLTMECEVVDIYETDGFDNFICAIVNTYAASDVLDSDGKLDYTKLKPVLFEFPTYSYLATGEIIGKCLNPDKPGMCVKEPMTTDGIVRLSKIEVYPQYLDEYMNYATEVGEISLRTEPGVLTMYAVGEKENPCKVTILETYASREAYEQHIASEHFQKYKQGTLHMVKSLVLSDQTPLNPANKLNNFMQ,not soluble
3,MGSDKIHHHHHHMKVTLIGIDLAKNVFQVCGINQAGKSVFNRALKRSQLMAFLFKYPDSIIAMEACSGSNYWGRELLTKGFEVRLIPPQHVKPFVKGNKNDRNDAFAICEAALRPNLTFVQPRTLEQTDMILAHRIRERNVENRTSLINQIRGLLNEYGVVIAQGKERLKLAIPELLENADSGLTEIARQHFQALLEEWKQVDRTIKNLEKNIKSQAKLNHQTNRLMGIKGVAEITATAAVAFAGNGAQYHNGRHFAANLGLVPREYSSGGKQKLGKITKRGNNYLRRLLVQGAWSIIRYVGNSTDRMSVWAKKLIERRGKHKAAVAVANKLARIIWSMLYNQTEYRAN,not soluble
4,VSEEELKLILAGAEESGAIEPQEEEMIHSILELEETPVREIMTPRVEMVAIEDEATLEDLLALYREHRYSRVPVYRESVDHIVGVAYVQDLLTYYCEEDLKAFKVASIAHPPYFVPENMDAWSLLKELRRRKVHMAIVVDEFGGTAGLVTLEDVIEEIVGEI,not soluble
5,MNFSGKYQVQSQENFEPFMKAMGLPEDLIQKGKDIKGVSEIVHEGKKVKLTITYGSKVIHNEFTLGEECELETMTGEKVKAVVKMEGDNKMVTTFKGIKSVTEFNGDTITNTMTLGDIVYKRVSKRI,soluble
6,MGSDKIHHHHHHMDVIIDKNSGYCFGVEFAIQMAEDEMATGEPLFCLGDIVHNSMEVERLAKKGLKIIDREELKKLSDCKVLIRAHGEPPETYQLALENNIELVDASCPVVLKLQNRVKASFDAIDSKDGQIVIYGQEGHAEVIGIAGQTGDKAIVITTEKDLDKIDFEKPVTLYSQTTKSTQGFYKMKDLIEARVAEAGKNVDENFEYNDSICRQVSNREPQLRKFSKEFDVVIFVSGKKSSNGKALYGVCKQENERSYFVENETEIEPSWIRATDNVGICGATSTPMWLMEKVQNYIQAHSWN,not soluble
7,SDDKPNPEALSDSSERLFSFGVIADVQFADLEDGFNFQGTRRRYYRHSLLHLQGAIEDWNNESSMPCCVLQLGDIIDGYNAQYNASKKSLELVMDMFKRLKVPVHHTWGNHEFYNFSREYLTHSKLNTKFLEDQIVHHPETMPSEDYYAYHFVPFPKFRFILLDAYDLSVLGVDQSSPKYEQCMKILREHNPNTELNSPQGELFL,soluble
8,MAHHHHHHMGLVSSKHAGGGDGKPLSLDVISSRPKLEPHEVSLLQLTPHGVYATLAAHVYCAAAPETAMQVPLPDGWEVLLQCSSLHLDKEGYFAVAYVHRGSRHCIISERGTSEVLGLRAGIWMYFEQPTIQFFLAEQFSKAVRHKLKVMDKVCSGSWFVSYTGHSLGAVIAGCRAVMEGTLAVTFESPGARVFIEKTLDASSGTDEHLITYLRAPNPINTLKPQCGYVIMIPTQQVVLPSGTLFLAPSNPAAAEDDDEDERQSPRSGSGNRASRKPSKVPLSSTSSTNPSGCAGLVAASVTTAASTGTTAAATLAARSPTPPSVPASNSNNSGPGAAVASAPARWRIPSFRPQEYLRGYLFGGVGMGVPELQQYVGKVEPMIREMLEHTQQVHSIHSLRSHFQKSDEPGDEEVVLRWPSHLLQFMEFYNTTRALEDPENQDAGVKEAYLGLMRRLYYTEPRRRDCIPTKYLDPRSLLLVRMWWSMDAAQRKQWPLSLMDHKALNVIQIKDRYLCSYVMTAMQAKQYLMRLVARPEMRAMIDQWRRERNDGSTGAGSPQRSKL,not soluble
9,MAHHHHHHMGGCVVSLMECKARSNEVPWELSEDVKSYGPLSVAVAGTQTPNSSAVYVNGKQSTLAAQQECGKQFYYGPNQPQRFAKLCQENLDSVALAYRRIEKMEKEQVAGASRPMDVAYFSEQCNLTYRELWHAVTGFSRGLAELGLEKRVNVTIYEETRWEWLASIYGIWMQDMVAATVYANLGEGALFHALRETECKAILCNGKSVPNLLRGVGSGAFPACTLIYLDNLPVAGCAELHGCRVVSWKDVVALGHGAGAHHGAAPPEDNESVALIMYTSGTTGDPKGVMHTHGSIVAGILTMDDWLYSVIKHRPDDVYLSYLPMAHIMEFGVVNILLARRAHVAFGTPRTLTDATARPHGDFTHFRPTLLIGVPRIFDTLKKAVEAKLPPVGTLKRQVFDHAYQSRLAALKEGKDTPFWNEKVFSQPRAALGGRVRAFLSGGGPLSETTQEFVNVVFGCIVNGWGLTETVCIGAIQRLGDLTPSAVGQVLCSEQLKLRDIDEYKHTDTPYPRGEICLRGPFLFKGYYKQPELTREVLDEDGWFHTGDVGSIDCEGRVSIVGRIKALAKNCLGEYIALEVLEAVYSSHPLVLHNCVCVLVDPCKNYICALVLTDESHVMRFAKANGIEGEYPSLLEKKELLEKAAASMAETARAARRRDFEVVRRVSLIDDEWSPEKGQLTAALKLRRGAIAKQYEKQITCLFAE,not soluble
10,MILDTDYITENGKPVIRVFKKENGEFKIEYDRTFEPYFYALLKDDSAIEDVKKVTAKRHGTVVKVKRAEKVQKKFLGRPIEVWKLYFNHPQDVPAIRDRIRAHPAVVDIYEYDIPFAKRYLIDKGLIPMEGDEELTMLAFAIATLYHEGEEFGTGPILMISYADGSEARVITWKKIDLPYVDVVSTEKEMIKRFLRVVREKDPDVLITYNGDNFDFAYLKKRCEELGIKFTLGRDGSEPKIQRMGDRFAVEVKGRIHFDLYPVIRRTINLPTYTLEAVYEAVFGKPKEKVYAEEIAQAWESGEGLERVARYSMEDAKVTYELGREFFPMEAQLSRLIGQSLWDVSRSSTGNLVEWFLLRKAYKRNELAPNKPDERELARRRGGYAGGYVKEPERGLWDNIVYLDFRSLYPSIIITHNVSPDTLNREGCKEYDVAPEVGHKFCKDFPGFIPSLLGDLLEERQKIKRKMKATVDPLEKKLLDYRQRAIKILANSFYGYYGYAKARWYCKECAESVTAWGREYIEMVIRELEEKFGFKVLYADTDGLHATIPGADAETVKKKAKEFLKYINPKLPGLLELEYEGFYVRGFFVTKKKYAVIDEEGKITTRGLEIVRRDWSEIAKETQARVLEAILKHGDVEEAVRIVKEVTEKLSKYEVPPEKLVIHEQITRDLRDYKATGPHVAVAKRLAARGVKIRPGTVISYIVLKGSGRIGDRAIPADEFDPTKHRYDAEYYIENQVLPAVERILKAFGYRKEDLRYQKTKQVGLGAWLKVKGKK,soluble
11,MPVAATNSETAMQQVLDNLGSLPSATGAAELDLIFLRGIMESPIVRSLAKAHERLEETKLEAVRDNNLELVQEILRDLAQLAEQSSTAAELAHILQEPHFQSLLETHDSVASKTYETPPPSPGLDPTFSNQPVPPDAVRMVGIRKTAGEHLGVTFRVEGGELVIARILHGGMVAQQGLLHVGDIIKEVNGQPVGSDPRALQELLRNASGSVILKILPSYQEPHLPRQVFVKCHFDYDPARDSLIPCKEAGLRFNAGDLLQIVNQDDANWWQACHVEGGSAGLIPSQLLEEKRKAFVKRDLELTPNSGTLCGSLSGKKKKRMMYLTTKNAEFDRHELLIYEEVARMPPFRRKTLVLIGAQGVGRRSLKNKLIMWDPDRYGTTVPYTSRRPKDSEREGQGYSFVSRGEMEADVRAGRYLEHGEYEGNLYGTRIDSIRGVVAAGKVCVLDVNPQAVKVLRTAEFVPYVVFIEAPDFETLRAMNRAALESGISTKQLTEADLRRTVEESSRIQRGYGHYFDLCLVNSNLERTFRELQTAMEKLRTEPQWVPVSWVY,soluble
12,MRYMMTYDWMETVRNTNQWMGATANSMASYPLFSMVPNPVFNWMSAWGEVTERTFQRMVVKPDWGIRTFTCEDGKDHLVEINTVVERDFGDLIHINVTGRETQPRKVLLVAPMSGHYATLLRSTVKSLLVNCEVYVTDWHNARDIPVSAGKFDVEDYTLYLVDFMRELGPDTHVIAVCQPAPLTLAATAYLAELDPKAQPSTLTLIGGPVDPDATPTEVTDFGRRVTMGQLEQSMIQRVGFKYKGVGRMVYPGLLQLASFMSMNADRHSKAFTDQIQRVMRDEASDHDAHNRFYDEYLAVMDMTAEFYLSTVERVFKKREIARNAFIVDGHKVDISKITDVAVMTVEGANDDISAPGQCIAALDLCTGLADSKKANHLEPGAGHYGIFAGRSWRDNIRPLVIDFMNTNSRKGKSLRPANKNSAA,not soluble
13,SNAMKLTPNFYRDRVCLNVLAGSKDNAREIYDAAEGHVLVGVLSKNYPDVASAVVDMRDYAKLIDNALSVGLGAGDPNQSAMVSEISRQVQPQHVNQVFTGVATSRALLGQNETVVNGLVSPTGTPGMVKISTGPLSSGAADGIVPLETAIALLKDMGGSSIKYFPMGGLKHRAEFEAVAKACAAHDFWLEPTGGIDLENYSEILKIALDAGVSKIIPHIYSSIIDKASGNTRPADVRQLLEMTKQLVK,soluble
14,MERMMLIAFDLEGTLTDMVSWELLHKKFETCGLAKKNAELFFSGRISYEEWAKLDASLWKGRRREEVEEVFKEVSLKDYAEELFRWLKEKGFKTAIITGGLMCLAKKVAEKLNPDYVYANELVFNEKGEITGDVIVRVTFDNKGEILERLKRELNPTLTVAVGDWKNDLPMFEVADISISLGEDHADYLAKDLREVKKILKEVLLETEKL,soluble
15,MGSDKIHHHHHHMGIRSHLAIAAGKTSQWVLQTFFKGGSSYPGKLALKIDPKILDTLAKDYEIVVVTGTNGKTLTTALTVNILRQEFDEVLTNPTGANMEQGIVSTFLNAKAKKGQKKFAVLEIDEASLSRVTKYIQPKLFVFTNIFRDQMDRYGEIYTTYRLIMEGAAAAPEATILCNGDSPIFNSKETVNPRKYYGFNHLPPKEQLAHYNTDGVLCPKCNHILHYKMITYANLGDYYCPNCGFKRPELDVQLTEMVRMDNTSADFVIDGEEYGIAVGGMYNVYNALAATAVAEYYQVAPDKIRAGLAYDEKVFGRQETIKVGDKECTLVLVKNPVGLNQVIDMMGLAPYSFSLVSLLNANYADGIDVSWIWDGNHEAFADMDIPKVIAGGDRHEDMALRLKVAGIPEEKLLEIADLEQVISEIKTLPTDHVYILATYTAVLQLRKSLTAQGYIQGGMNGV,not soluble
16,MKAEKVRLRKQIIEHMNSLSEEQYTTLSEQIAFSLYAQKEWVEAKTIGITLSMENEVNTYPIIEKAWEEGKKVVVPKCNKGTRTMSFRQINNFDQLETVYMNLREPIPGLTEEVNMDEIDLQIVPGVAYTERGERIGYGGGYYDRYLVHYKGKTLSLAYDFQMVKHIPVEPFDKNIEKIITEKGTLLTNKLVLEHHHHHH,soluble

# Reference: the DeepSol protein solubility set
